What was measured:
[1] = target: Human PCNA (proliferating cell nuclear antigen) (human); assay: crystal structure; co-crystal of PCNA with a 10 bp dsDNA, hanging drop, 20 °C, 11% PEG 3350, 0.1 M sodium acetate pH 4.5; space group H3, 2.8 Å
PCNA = PCNA (human, UniProt P12004 1-261); assay: NMR; 1H-15N TROSY titration, T73 CSP, single-site model; text gives ~0.7 mM; NMR: 100 uM PCNA, 20 mM sodium phosphate, 50 mM NaCl, pH 7.0, 20 uM DSS, 0.01% NaN3, 5% 2H2O, 35 C; conditions: protein: recombinant; tags: N-terminal His6 and PreScission site, cleaved; residual GPH- at N terminus; chain copies: 3; blunt
PCNA, sequence (P12004 whole entry): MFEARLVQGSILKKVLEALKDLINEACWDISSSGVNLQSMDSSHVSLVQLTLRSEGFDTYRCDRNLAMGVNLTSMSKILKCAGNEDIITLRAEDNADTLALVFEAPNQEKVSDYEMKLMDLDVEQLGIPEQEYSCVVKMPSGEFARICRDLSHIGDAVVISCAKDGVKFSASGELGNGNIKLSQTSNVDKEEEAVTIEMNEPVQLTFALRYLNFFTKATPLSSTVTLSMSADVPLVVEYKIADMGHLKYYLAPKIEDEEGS

| stoichiometry N [1] | Molecule | Kd (PCNA) |
| --- | --- | --- |
| 3 | Human PCNA (proliferating cell nuclear antigen) (natural protein) |  |
|  | 10 bp dsDNA (dsDNA) DNA 1: ATACGATGGG DNA 2: CCCATCGTAT | 700 ± 100 µM |

Reference: publication PMC5234079, “Structural basis of human PCNA sliding on DNA”
